± gives the standard error. Variants at the floor of the assay were thinned out.
B1: glmS ribozyme (parent)
chain: AUAAAAGCGCCAGAACUACAGAAAUGUAGUUGACGAGGAGGAGGUUUAUCGAAUUUUCGGCGGAUGCCUCCAAA

Columns and labels:
Details in all cases: with glucosamine-6-phosphate
[1] = variants of: B1; assay: self-cleavage kobs at 40 uM GlcN6P; higher = faster cleavage; RNA array
How it was run: (§1)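 kcat and KM were obtained from weighted Michaelis–Menten fits across concentrations of kobs values. Those came from one- or two-exponential decay fits to per-tile medians normalised to baseline and to non-cleaving reference variants. The variants were barcoded ribozymes transcribed in situ by E. coli RNA polymerase on sequenced MiSeq chips and tracked through a hybridised Cy3 probe at 37 °C, with 40 μM to 10 mM glucosamine-6-phosphate in HEPES/KCl/Mg(OAc)2 buffer flowed in.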

[2] = variants of: B1; assay: self-cleavage kobs at 160 uM GlcN6P; higher = faster cleavage; RNA array
How it was run: as §1

[3] = variants of: B1; assay: self-cleavage kobs at 640 uM GlcN6P; higher = faster cleavage; RNA array
How it was run: as §1

[4] = variants of: B1; assay: self-cleavage kobs at 10000 uM GlcN6P; higher = faster cleavage; RNA array
How it was run: as §1

[5] = variants of: B1; assay: self-cleavage kobs at 2500 uM GlcN6P; higher = faster cleavage; RNA array
How it was run: as §1

Variant | self-cleavage kobs at 40 uM GlcN6P [1] | self-cleavage kobs at 160 uM GlcN6P [2] | self-cleavage kobs at 640 uM GlcN6P [3] | self-cleavage kobs at 10000 uM GlcN6P [4] | self-cleavage kobs at 2500 uM GlcN6P [5]
U49C G59A C67G | < 1e-05 s⁻¹ | < 1e-05 s⁻¹ | < 1e-05 s⁻¹ | < 1e-05 s⁻¹ | 
A6G G35A | < 1e-05 s⁻¹ | < 1e-05 s⁻¹ | < 1e-05 s⁻¹ | < 1e-05 s⁻¹ | < 1e-05 s⁻¹
C16A U31A G32U G40C G41A C67U C68U | < 1e-05 s⁻¹ |  |  | < 1e-05 s⁻¹ | 
A6C G37C A39G G40U G41U | < 1e-05 s⁻¹ | < 1e-05 s⁻¹ | < 1e-05 s⁻¹ |  | < 1e-05 s⁻¹
G41C G43A U46G C68A C70U | < 1e-05 s⁻¹ |  |  |  | 
G32A A33C C68G C71G | 5.72e-05 ± 1.6e-05 s⁻¹ |  |  | 8.64e-05 ± 2e-05 s⁻¹ | 
C11U G32U U49A C71A | < 1e-05 s⁻¹ |  |  |  | 
C11A G44U G59U C67A | 0.000322 ± 8.1e-05 s⁻¹ |  |  | 0.00946 ± 0.002 s⁻¹ | 
A14U A52C C71G | < 1e-05 s⁻¹ |  | < 1e-05 s⁻¹ |  | 
A14G G38A | < 1e-05 s⁻¹ |  |  |  | 
G60C G66U | < 1e-05 s⁻¹ |  | < 1e-05 s⁻¹ |  | < 1e-05 s⁻¹
C8G C58G G60A | < 1e-05 s⁻¹ |  |  | < 1e-05 s⁻¹ | 
G41A C68G | < 1e-05 s⁻¹ | < 1e-05 s⁻¹ | < 1e-05 s⁻¹ | < 1e-05 s⁻¹ | < 1e-05 s⁻¹
C34A G43C A48G | < 1e-05 s⁻¹ |  |  |  | 
G7A A48C | < 1e-05 s⁻¹ | < 1e-05 s⁻¹ | < 1e-05 s⁻¹ | < 1e-05 s⁻¹ | 
U55A C67U | 0.000401 ± 8.2e-05 s⁻¹ | 0.000667 ± 0.00022 s⁻¹ | 0.00589 ± 0.0022 s⁻¹ | 0.0154 ± 0.0038 s⁻¹ | 
A6C A48U | < 1e-05 s⁻¹ |  |  |  | < 1e-05 s⁻¹
G9A C50A U56C C67A | < 1e-05 s⁻¹ |  | < 1e-05 s⁻¹ |  | < 1e-05 s⁻¹
A53C C61U | < 1e-05 s⁻¹ | < 1e-05 s⁻¹ | < 1e-05 s⁻¹ |  | 
U30A G60U | < 1e-05 s⁻¹ | < 1e-05 s⁻¹ | < 1e-05 s⁻¹ | < 1e-05 s⁻¹ | 
C34A U56C | < 1e-05 s⁻¹ |  | < 1e-05 s⁻¹ | < 1e-05 s⁻¹ | < 1e-05 s⁻¹
G44C A48C | < 1e-05 s⁻¹ | < 1e-05 s⁻¹ |  | < 1e-05 s⁻¹ | < 1e-05 s⁻¹
C16U G40U U56A C71G | 3.89e-05 ± 1.1e-05 s⁻¹ |  |  | 0.00169 ± 0.00032 s⁻¹ | 

From the supplement of paper PMC7125110
